Experimental data: patent publication US20150315275A1

How the values were obtained:
[1] = target: human B7-H4 expressed on cells (human) (UniProt Q7Z7D3); experiment: saturation binding, flow cytometry on 624mel/B7-H4 cells; negative control used as background
[2] = target: human B7-H4 expressed on cells (human) (UniProt Q7Z7D3); experiment: flow cytometry on 624mel/B7-H4 cells, negative control antibody; signal subtracted as background from all other points

Sequence of human B7-H4 expressed on cells (human) (Q7Z7D3 other isoform, or with tags, fused parts or gaps limits assumed): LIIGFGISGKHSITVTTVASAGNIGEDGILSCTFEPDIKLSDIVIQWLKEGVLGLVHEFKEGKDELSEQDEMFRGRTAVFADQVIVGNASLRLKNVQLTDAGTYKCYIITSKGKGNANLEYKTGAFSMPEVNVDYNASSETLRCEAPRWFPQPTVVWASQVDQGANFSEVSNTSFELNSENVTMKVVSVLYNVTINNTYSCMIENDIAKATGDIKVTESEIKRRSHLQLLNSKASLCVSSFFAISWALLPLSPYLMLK

## negative control antibody (anti-PD-1 antibody)
[1]
  average signal (MFI): 245 MFI
[2]
  MFI (average background signal): 245 MFI
